Common to all, as to details: remark: other sources report otherwise
For assay [1], the target named is T1, recombinant homotrimeric HA, A/California/4/09 H1N1 (Influenza A virus A/California/4/09 (H1N1)). As to the kind of experiment: trimeric HA microarray, transfection set 3.
Assay [2] addresses recombinant homotrimeric HA, A/Egypt/3300-NAMRU3/08 H5N1 (Influenza A virus A/Egypt/3300-NAMRU3/08 (H5N1)). The assay can be described thus: trimeric HA microarray, transfection set 3.
For assay [3], the target named is recombinant homotrimeric HA, A/Hong Kong/1073/99 H9N2 (Influenza A virus A/Hong Kong/1073/99 (H9N2)). As to the kind of experiment: trimeric HA microarray, transfection set 3.
Assay [4] has as its target recombinant homotrimeric HA, A/Hong Kong/2108/03 H9N2 (Influenza A virus A/Hong Kong/2108/03 (H9N2)). As to the kind of experiment: trimeric HA microarray, transfection set 3.
The target in assay [5] is T2, recombinant homotrimeric HA, A/Indonesia/5/05 H5N1 (Influenza A virus A/Indonesia/5/05 (H5N1)). As to the kind of experiment: trimeric HA microarray, transfection set 3.
Assay [6] concerns the target T3, recombinant homotrimeric HA, A/Japan/305/57 H2N2 (Influenza A virus A/Japan/305/57 (H2N2)). As to the kind of experiment: trimeric HA microarray, transfection set 3.
Assay [7] addresses T4, recombinant homotrimeric HA, A/Solomon Islands/3/06 H1N1 (Influenza A virus A/Solomon Islands/3/06 (H1N1)). As to the kind of experiment: trimeric HA microarray, transfection set 3.
Assay [8] addresses T5, recombinant homotrimeric HA, A/South Carolina/1/18 H1N1 (Influenza A virus A/South Carolina/1/18 (H1N1)). As to the kind of experiment: trimeric HA microarray, transfection set 3.
Assay [9] has as its target T6, recombinant homotrimeric HA, A/Vietnam/1203/04 H5N1 (Influenza A virus A/Vietnam/1203/04 (H5N1)). The assay can be described thus: trimeric HA microarray, transfection set 3.
The target of assay [10] is T7, recombinant homotrimeric HA, A/Wisconsin/67/05 H3N2 (Influenza A virus A/Wisconsin/67/05 (H3N2)). As to the kind of experiment: trimeric HA microarray, transfection set 3.
The target of assay [11] is recombinant homotrimeric HA, A/chicken/Vietnam/NCVD-016/08 H5N1 (Influenza A virus A/chicken/Vietnam/NCVD-016/08 (H5N1)). As to the kind of experiment: trimeric HA microarray, transfection set 3.
In assay [12] the target is recombinant homotrimeric HA, A/common magpie/Hong Kong/5052/07 H5N1 (Influenza A virus A/common magpie/Hong Kong/5052/07 (H5N1)). The assay can be described thus: trimeric HA microarray, transfection set 3.
Assay [13] has as its target recombinant homotrimeric HA, A/duck/Yangzhou/02/05 H8N4 (Influenza A virus A/duck/Yangzhou/02/2005 (H8N4)). The assay can be described thus: trimeric HA microarray, transfection set 3.
Assay [14] has as its target recombinant homotrimeric HA, A/northern shoveler/California/HKWF115/07 (Influenza A virus A/northern shoveler/California/HKWF115/2007 (H6N1)). The assay can be described thus: trimeric HA microarray, transfection set 3.
Assay [15] concerns the target recombinant homotrimeric HA, A/swine/Ontario/01911-2/99 H4N6 (Influenza A virus A/swine/Ontario/01911-2/99 (H4N6)). The assay can be described thus: trimeric HA microarray, transfection set 3.
In assay [16] the target is recombinant soluble homotrimeric HA of A/Anhui/1/05 (H5N1) (Influenza A virus A/Anhui/1/05 (H5N1)). The assay can be described thus: microarray, BCC supernatant IgG, trimeric HA.
The target of assay [17] is recombinant soluble homotrimeric HA of A/California/4/09 (H1N1) (Influenza A virus A/California/4/09 (H1N1)). As to the kind of experiment: microarray, BCC supernatant IgG, trimeric HA.
Assay [18] concerns the target recombinant soluble homotrimeric HA of A/Egypt/3300-NAMRU3/08 (H5N1) (Influenza A virus A/Egypt/3300-NAMRU3/08 (H5N1)). As to the kind of experiment: microarray, BCC supernatant IgG, trimeric HA.
Assay [19] deals with recombinant soluble homotrimeric HA of A/Hong Kong/2108/03 (H9N2) (Influenza A virus A/Hong Kong/2108/03 (H9N2)). As to the kind of experiment: microarray, BCC supernatant IgG, trimeric HA.
In assay [20] the target is recombinant soluble homotrimeric HA of A/Indonesia/5/05 (H5N1) (Influenza A virus A/Indonesia/5/05 (H5N1)). As to the kind of experiment: microarray, BCC supernatant IgG, trimeric HA.
Assay [21] concerns the target recombinant soluble homotrimeric HA of A/Japan/305/57 (H2N2) (Influenza A virus A/Japan/305/57 (H2N2)). The assay can be described thus: microarray, BCC supernatant IgG, trimeric HA.
In assay [22] the target is recombinant soluble homotrimeric HA of A/Solomon Islands/3/06 (H1N1) (Influenza A virus A/Solomon Islands/3/06 (H1N1)). The assay can be described thus: microarray, BCC supernatant IgG, trimeric HA.
In assay [23] the target is recombinant soluble homotrimeric HA of A/Vietnam/1203/04 (H5N1) (Influenza A virus A/Vietnam/1203/04 (H5N1)). The assay can be described thus: microarray, BCC supernatant IgG, trimeric HA.
Assay [24] has as its target recombinant soluble homotrimeric HA of A/Wisconsin/67/05 (H3N2) (Influenza A virus A/Wisconsin/67/05 (H3N2)). As to the kind of experiment: microarray, BCC supernatant IgG, trimeric HA.
Assay [25] deals with recombinant soluble homotrimeric HA of A/chicken/Vietnam/NCVD-016/08 (H5N1) (Influenza A virus A/chicken/Vietnam/NCVD-016/08 (H5N1)). The assay can be described thus: microarray, BCC supernatant IgG, trimeric HA.
The target of assay [26] is recombinant soluble homotrimeric HA of A/duck/Yangzhou/02/05 (H8N4) (Influenza A virus A/duck/Yangzhou/02/2005 (H8N4)). As to the kind of experiment: microarray, BCC supernatant IgG, trimeric HA.
Assay [27] deals with recombinant soluble homotrimeric HA of A/northern shoveler/California/HKWF115/07 (Influenza A virus A/northern shoveler/California/HKWF115/2007). As to the kind of experiment: microarray, BCC supernatant IgG, trimeric HA.
In assay [28] the target is recombinant soluble homotrimeric HA of A/swine/Ontario/01911-2/99 (H4N6) (Influenza A virus A/swine/Ontario/01911-2/99 (H4N6)). The assay can be described thus: microarray, BCC supernatant IgG, trimeric HA.
The target in assay [29] is T1, recombinant homotrimeric HA, …. As to the kind of experiment: trimeric HA microarray, transfection set 5.
For assay [30], the target named is T3, recombinant homotrimeric HA, …. The assay can be described thus: trimeric HA microarray, transfection set 5.
In assay [31] the target is T4, recombinant homotrimeric HA, A/Solomon …. The assay can be described thus: trimeric HA microarray, transfection set 5.
Assay [32] has as its target T5, recombinant homotrimeric HA, A/South …. The assay can be described thus: trimeric HA microarray, transfection set 5.
The target of assay [33] is T6, recombinant homotrimeric HA, …. The assay can be described thus: trimeric HA microarray, transfection set 5.
Assay [34] concerns the target T7, recombinant homotrimeric HA, …. As to the kind of experiment: trimeric HA microarray, transfection set 5.
Assay [35] has as its target hemagglutinin (HA) of influenza A/Japan/305/57 H2N2 (Influenza A virus A/Japan/305/1957 (H2N2)), P03451. The assay can be described thus: ELISA, inactivated whole virions coated; transfection supernatant set 5.
For assay [36], the target named is T2, recombinant homotrimeric HA, …. As to the kind of experiment: trimeric HA microarray, transfection set 5.
Assay [37] addresses recombinant soluble homotrimeric HA of A/Netherlands/219/03 (H7N7) (Influenza A virus A/Netherlands/219/03 (H7N7)). The assay can be described thus: microarray, BCC supernatant IgG, trimeric HA.

B1: TCN-533 (5256_A17) (antibody, V domains shown)
VH: QVQLVQSGADVKKPGSSVTVSCKASGGSFSNYGINWVRQAPGQGLEWMGGIIPLINAPNYAPKFQGRVTITADMFSNIVSLQLTSLRTDDTAVYYCARRKMTTAIDYWGQGTLVTVSS
VL: QPVLSQPPSASASLGASVTLTCTLSSGFDNYQVAWYQQRPGKGPRFVMRVGNGGNVASKGDGIPDRFSVSGSGLNRYLTIKNIQEDDESDYYCGADHGSGNNFVSPYVFGGGTKLTVL
Turning to B1, the Trimeric HA Binding RLU in assay [1] amounted to 6880 RLU; in assay [2], 18600 RLU; in assay [3], 23800 RLU; in [4], 33 RLU; in assay [5], 28300 RLU; in assay [6], 18600 RLU. Moreover, the Trimeric HA Binding RLU in assay [7] is 15500 RLU; in assay [8], 16400 RLU; in assay [9], 11700 RLU; in assay [10], 16100 RLU; in assay [11], 24600 RLU; in assay [12], 25200 RLU. The Trimeric HA Binding RLU in assay [13] amounted to 711 RLU; in assay [14], 7810 RLU; in [15] it was 180 RLU. Further, the Trimeric HA Binding: RLU is 8060 RLU in assay [16]; 29300 RLU in assay [17]; 34300 RLU in [18]; 172 RLU in [19]; 44100 RLU in assay [20]; 10800 RLU in assay [21]. The Trimeric HA Binding: RLU is 39200 RLU in assay [22]; 5680 RLU in assay [23]; 13800 RLU in [24]; 47700 RLU in assay [25]; 24700 RLU in assay [26]; 41400 RLU in assay [27]. Besides, the Trimeric HA Binding: RLU in assay [28] came to 1580 RLU.

B2: TCN-551 (5243_D01) (antibody, V domains shown)
VH: EVQLVQSGSEVKKPGESLKISCKGSGYSFSNYWIGWVRHMPGKGLEWMGIIYPGDSDTRYSPSFQGQVTMSADKSSSTVYLQWSSLKASDTAIYYCARRGGHSFGYGSGGDTHSEFDSWGQGTLVTVSS
VL: QSVLTQSPSVSAAPGQKVTISCSGSDSNIGDYFVCWYQHLPGKPPQLLIYENNKRPSGIPDRFSGSKSGTSATLGITGIQTGDEADYYCATWDGSLSAWVFGGGTKLTVL
Take B2: the Trimeric HA Binding RLU is 46100 RLU in assay [29]; 25200 RLU in [30]; 43500 RLU in [31]; 4340 RLU in [32]; 41900 RLU in assay [33]; 936 RLU in assay [34]. Moreover, the Trimeric HA Binding: RLU in assay [25] was 42300 RLU; in assay [27] it was 52500 RLU. The molecule further showed an OD450 in [35] of 0.1 OD450.

B3: TCN-538 (3206_O17) (antibody, V domains shown)
VH: QITLKESGPTLVKPTQTLTLTCVFSGFSLSITGVRVGWIRQPPGKALEWLALISWDDEKHYSPSLQSRLTITKDTSKNQVVLTMTNLDPVDTATYYCARSTDRGHVLRYFGWMLPGDAFDVWGQGTMVTVSS
VL: DIVMTQSPDFLPVSLGERATINCKSSQRVLYSSNNKNYLAWYQLKPGQPPKLIIYWASTRESGVPDRFSGSGSGTEFTLTISSLQAEDVAVYYCQQYYSRPYTFGQGTKLEIK
Turning to B3, the Trimeric HA Binding RLU in assay [29] is 16000 RLU; in [36] it was 13700 RLU; in assay [30] it was 6620 RLU; in assay [31], 1960 RLU; in [32], 8430 RLU; in assay [34], 2070 RLU. For the same molecule, in assay [37], the Trimeric HA Binding: RLU is 6530 RLU.
